Experimental findings from patent US20190023792A1 (Innovent, published 2019) are described below.

Substitutions are numbered along the chain they refer to. Names and notes keep the numbering of the source.

The Kd is the equilibrium constant for the complex coming apart. A higher Kd goes with lower affinity. The term EC50 denotes the concentration giving half of the maximal effect.

One experiment addresses cynoPD-1_Fc (cyno) (UniProt B0LAJ3). Briefly: BLI (ForteBio), Fab in solution, cynoPD-1_Fc on sensor tip. (In general: In BLI a coated tip is dipped into the sample, and binding shifts an interference pattern.)
Experiment [1] has as its target T1, human PD-1 on cells (human, UniProt Q15116 25-288). Briefly: flow cytometry blocking assay, 100 nM control IgG on CHO cells with human PD-1, then PD-L2-FITC (remaining ligand signal). A general note: Flow cytometry measures light scatter and fluorescence of single cells or particles in a stream.
Experiment [2] addresses b-PD-1 monomer (human PD-1) (human) (UniProt Q15116). Briefly: MSD solution equilibrium titration, avid KD.
The target in experiment [3] is T1, human PD-1 on cells. Briefly: flow cytometry on CHO cells with human PD-1, n=1. Here is the method:
Cells are then washed 3×, and are incubated with a secondary antibody (PE-labelled, at final concentration of 5 μg/ml) in PBS 1% BSA for 30 min on ice (protected from light). Cells are washed 3× and analyzed via flow cytometry. Flow cytometry is performed on an Accuri C6 system (BD Biosciences) and MFIs are calculated on the C6 software. EC50s are calculated on Graphpad software.

For experiment [4], the target named is T1, human PD-1 on cells. The experiment can be described thus: cell-based or functional assay.
The target of experiment [5] is T1, human PD-1 on cells. Briefly: cell-based or functional assay. This is another data set of the same source.
Experiment [6] deals with T2, b-PD-1 monomer (human PD-1) (human, UniProt Q15116 25-167, limits assumed, biotinylated (b-PD-1; detected with streptavidin), site not stated).
T2 construct: The antigen used for the avid KD is not described separately; also called antigen
T2 sequence (Q15116 25-167 limits assumed): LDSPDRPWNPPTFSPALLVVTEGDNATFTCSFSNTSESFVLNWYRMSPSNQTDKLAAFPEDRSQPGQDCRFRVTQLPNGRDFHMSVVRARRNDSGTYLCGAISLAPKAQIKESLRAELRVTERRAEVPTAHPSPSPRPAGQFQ
Briefly: MSD solution equilibrium titration, avid KD. Here is the method:
(§1) Equilibrium affinity measurements are performed as previously described (Estep, P., et al., MAbs, 2013.5 (2): p. 270-8). Solution equilibrium titrations (SET) are performed in PBS+0.1% IgG-Free BSA (PBSF) where antigen (b-PD-1 monomer) is held constant at 10-100 pM and is incubated with 3-to 5-fold serial dilutions of Fab or mAbs starting at 5-100 nM (experimental condition is sample dependent). Antibodies diluted at 20 nM in PBS are coated onto standard bind MSD-ECL plates overnight at 4° C. or at room temperature for 30 min. Plates are blocked with BSA for 30 min whilst shaking at 700 rpm. Plates are then washed 3× with wash buffer (PBSF+0.05% Tween 20). SET samples are applied and incubated on the plates for 150 s with shaking at 700 rpm followed by one wash. Antigen captured on a plate is detected with 250 ng/mL sulfotag-labeled streptavidin in PBSF by incubation on the plate for 3 min. The plates are washed three times with wash buffer and are then read on the MSD Sector Imager 2400 instrument using 1× Read Buffer T with surfactant. The percent free antigen is plotted as a function of titrated antibody in Prism and fit to a quadratic equation to extract the KD. To improve throughput, liquid handling robots are used throughout MSD-SET experiments, including for SET sample preparation.

For another experiment, the target named is T3, human PD-1_His (human, UniProt Q15116 25-167, limits assumed).
T3 construct: also called hPD-1_HIS
T3 sequence (Q15116 25-167 limits assumed): as above
The experiment can be described thus: BLI (ForteBio), hPD-1_HIS in solution, IgG on sensor tip. Here is the method: Briefly, ForteBio affinity measurements were performed by loading IgGs online onto AHQ sensors. Sensors were equilibrated off-line in assay buffer for 30 min and then monitored on-line for 60 seconds for baseline establishment. Sensors with loaded IgGs were exposed to 100 nM antigen for 5 min, afterwards they were transferred to assay buffer for 5 min for off-rate measurement. Kinetics was analyzed using the 1:1 binding model.

Experiment [7] has as its target T1, human PD-1 on cells. The experiment can be described thus: flow cytometry blocking assay, 100 nM antibody on CHO cells with human PD-1, then PD-L2-FITC (remaining ligand signal). How it is done:
CHO cells 0.2×10⁶ are incubated with the experimental antibody (100 nM) for 30 min in PBS 1% BSA on ice. […] Cells are washed 3× and analyzed via flow cytometry. Flow cytometry is performed on an Accuri C6 system (BD Biosciences) and MFIs are calculated on the C6 software. EC50 s are calculated on Graphpad software.

Experiment [8] has as its target T2, b-PD-1 monomer (human PD-1). The experiment can be described thus: MSD solution equilibrium titration, monovalent KD. How it is done: as §1
A further experiment deals with T4, human PD-1_Fc (human, UniProt Q15116 25-167, limits assumed).
T4 construct: also called hPD-1_Fc
T4 sequence (Q15116 25-167 limits assumed): as above
The experiment can be described thus: BLI (ForteBio), Fab in solution, hPD-1_Fc on sensor tip.

A further experiment deals with cynoPD-1_Fc (cyno, UniProt B0LAJ3 25-170). The experiment can be described thus: BLI (ForteBio), Fab in solution, cynoPD-1_Fc on sensor tip.
cynoPD-1_Fc, sequence (B0LAJ3 entry or part of it limits assumed): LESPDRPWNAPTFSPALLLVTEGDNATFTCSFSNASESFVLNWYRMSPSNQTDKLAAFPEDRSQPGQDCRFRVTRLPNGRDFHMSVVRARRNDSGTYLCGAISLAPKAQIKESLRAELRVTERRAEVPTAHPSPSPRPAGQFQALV

T1 sequence (Q15116 25-288 limits assumed): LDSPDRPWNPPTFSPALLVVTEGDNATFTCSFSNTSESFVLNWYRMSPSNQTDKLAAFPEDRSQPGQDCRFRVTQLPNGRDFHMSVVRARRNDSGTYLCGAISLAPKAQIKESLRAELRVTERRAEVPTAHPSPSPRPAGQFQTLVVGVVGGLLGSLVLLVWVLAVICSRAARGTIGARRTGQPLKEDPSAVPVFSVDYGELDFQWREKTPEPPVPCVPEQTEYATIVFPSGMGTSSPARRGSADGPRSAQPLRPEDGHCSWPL
cynoPD-1_Fc (cyno), sequence (B0LAJ3 entry or part of it limits assumed): as the sequence (B0LAJ3 entry or part of it limits assumed) above
b-PD-1 monomer (human PD-1) (human), sequence (Q15116 25-167 limits assumed): as the sequence (Q15116 25-167 limits assumed) above

For the molecule pembrolizumab Fab, the Kd with cynoPD-1_Fc (cyno) was found to be 0.47 nM.
In the case of control IgG (antibody), the MFI (PD-L2-FITC) with human PD-1 on cells [1] worked out at 183000 MFI.
In the case of nivolumab Fab, in the experiment with cynoPD-1_Fc (cyno), the Kd came to 1.2 nM. In other words, the single-digit nanomolar range.
nivolumab (antibody) registered a Kd in [2] of 0.005 nM. This counts as picomolar.

B1: Antibody B S228P IgG4 (xd-16 B) (antibody, V domains shown)
VH: QVQLVQSGAEVKKPGSSVKVSCKASGGTFSSTAISWVRQAPGQGLEWMGGIWPSFGTASYAQKFQGRVTITADESTSTAYMELSSLRSEDTAVYYCARAEYSSTGIFDYWGQGTLVTVSS
VL: DIQMTQSPSSVSASVGDRVTITCRASQGISSWLAWYQQKPGKAPKLLISAASSLQSGVPSRFSGSGSGTDFTLTISSLQPEDFATYYCQQANHLPFTFGGGTKVEIKR
notes: also called xd-16 B (IgG4 S228P); xd-16 B IgG4
In the experiment with human PD-1 on cells [3], B1 gave an EC50 of 1.46 nM. In the experiment with human PD-1 on cells [4], the “IFNg secretion fold change vs. IgG control, 0.01 nM IgG” value was 1.09 fold; the “IFNg secretion fold change vs. IgG control, 0.1 nM IgG” value was 1.59 fold; the “IFNg secretion fold change vs. IgG control, 1 nM IgG” value amounted to 2.15 fold; the “IFNg secretion fold change vs. IgG control, 10 nM IgG” value amounted to 2.17 fold. Also, the “IFNg secretion fold change vs. IgG control, 100 nM IgG” value in the experiment with human PD-1 on cells [4] came to 1.9 fold. In the experiment with human PD-1 on cells [5], the “IL-2 secretion fold change vs. IgG control, 0.01 nM IgG” value amounted to 1.15 fold; the “IL-2 secretion fold change vs. IgG control, 0.1 nM IgG” value stood at 1.46 fold; the “IL-2 secretion fold change vs. IgG control, 1 nM IgG” value came out at 2.18 fold; the “IL-2 secretion fold change vs. IgG control, 10 nM IgG” value turned out to be 2.39 fold. In the experiment with human PD-1 on cells [5], the “IL-2 secretion fold change vs. IgG control, 100 nM IgG” value was found to be 2.37 fold.

B2: xd-16 B, IgG1 format expressed in yeast (antibody, V domains shown)
VH: B1 VH
VL: DIQMTQSPSSVSASVGDRVTITCRASQGISSWLAWYQQKPGKAPKLLISAASSLQSGVPSRFSGSGSGTDFTLTISSLQPEDFATYYCQQANHLPFTFGGGTKVEIK
notes: Tested as IgG1 expressed in yeast; also called Antibody B
Consider B2, for which the Kd in experiment [6] was around 0.0009 nM; in the experiment with human PD-1_His it was 0.42 nM; in experiment [8] it was 0.045 nM. Moreover, in the experiment with human PD-1 on cells [7], the “MFI (PD-L2-FITC)” value came to 26400 MFI.

B3: xd-16 B, Fab format produced from IgG1 expressed in yeast (Fab, V domains shown)
VH: B1 VH
VL: B2 VL
notes: Fab produced from the yeast IgG1
Consider B3, for which the figures for the Kd with human PD-1_Fc and in the experiment with cynoPD-1_Fc were 0.63 nM and 0.78 nM, respectively.

B4: xd-16 E, IgG1 format expressed in yeast (antibody, V domains shown)
VH: B1 VH with S59N, Q62R
VL: B2 VL
notes: Tested as IgG1 expressed in yeast; also called Antibody E
For B4, the values for the Kd (in [6]; in the experiment with human PD-1_His; in [8]) were around 0.0009 nM, 0.56 nM and 0.15 nM, respectively. In addition, the “MFI (PD-L2-FITC)” value with human PD-1 on cells [7] turned out to be 40900 MFI.

B5: xd-16 D, Fab format produced from IgG1 expressed in yeast (Fab, V domains shown)
VH: B1 VH with G56D, S59N, Q65R, I106T
VL: B2 VL
notes: as for B3
With B5, the Kd was 0.99 nM with human PD-1_Fc and 1.2 nM with cynoPD-1_Fc.

B6: xd-16 E, Fab format produced from IgG1 expressed in yeast (Fab, V domains shown)
VH: B1 VH with S59N, Q62R
VL: B2 VL
notes: as for B3
As for B6, the Kd amounted to 0.86 nM with human PD-1_Fc and 1 nM with cynoPD-1_Fc.

B7: xd-16 D, IgG1 format expressed in yeast (antibody, V domains shown)
VH: B1 VH with G56D, S59N, Q65R, I106T
VL: B2 VL
notes: Tested as IgG1 expressed in yeast; also called Antibody D
With B7, the Kd was found to be 0.0013 nM in experiment [6], 0.65 nM with human PD-1_His and 0.093 nM in [8]. Further, the “MFI (PD-L2-FITC)” value in the experiment with human PD-1 on cells [7] is 40000 MFI.

B8: xd-16 C, Fab format produced from IgG1 expressed in yeast (Fab, V domains shown)
VH: B1 VH with Q65R, I106T
VL: B2 VL
notes: as for B3
B8: the values for the Kd with human PD-1_Fc and with cynoPD-1_Fc were 0.57 nM and 0.73 nM, respectively.

B9: Antibody D S228P IgG4 (xd-16 D) (antibody, V domains shown)
VH: B1 VH with G56D, S59N, Q65R, I106T
VL: B1 VL
notes: also called xd-16 D (IgG4 S228P); xd-16 D IgG4
In turn, B9 had an EC50 with human PD-1 on cells [3] of 1.47 nM.

B10: xd-16 C, IgG1 format expressed in yeast (antibody, V domains shown)
VH: B1 VH with Q65R, I106T
VL: B2 VL
notes: Tested as IgG1 expressed in yeast; also called Antibody C
Turning to B10, the Kd in experiment [6] was 0.0025 nM; with human PD-1_His, 0.38 nM; in experiment [8], 0.05 nM. Moreover, in the experiment with human PD-1 on cells [7], the “MFI (PD-L2-FITC)” value came out at 26500 MFI.
